This test concerns the target human collagen (Sigma cat. no. C5483) (human). Nature of the test: ELISA on immobilised human collagen (FIG. 9). For orientation: An ELISA detects its analyte on a solid surface through an enzyme-linked reagent.

Experimental findings from US20230279064A1 are described below.

Sequence of human collagen (Sigma cat. no. C5483) (human) (P02452 162-1218, chain 1 of 2): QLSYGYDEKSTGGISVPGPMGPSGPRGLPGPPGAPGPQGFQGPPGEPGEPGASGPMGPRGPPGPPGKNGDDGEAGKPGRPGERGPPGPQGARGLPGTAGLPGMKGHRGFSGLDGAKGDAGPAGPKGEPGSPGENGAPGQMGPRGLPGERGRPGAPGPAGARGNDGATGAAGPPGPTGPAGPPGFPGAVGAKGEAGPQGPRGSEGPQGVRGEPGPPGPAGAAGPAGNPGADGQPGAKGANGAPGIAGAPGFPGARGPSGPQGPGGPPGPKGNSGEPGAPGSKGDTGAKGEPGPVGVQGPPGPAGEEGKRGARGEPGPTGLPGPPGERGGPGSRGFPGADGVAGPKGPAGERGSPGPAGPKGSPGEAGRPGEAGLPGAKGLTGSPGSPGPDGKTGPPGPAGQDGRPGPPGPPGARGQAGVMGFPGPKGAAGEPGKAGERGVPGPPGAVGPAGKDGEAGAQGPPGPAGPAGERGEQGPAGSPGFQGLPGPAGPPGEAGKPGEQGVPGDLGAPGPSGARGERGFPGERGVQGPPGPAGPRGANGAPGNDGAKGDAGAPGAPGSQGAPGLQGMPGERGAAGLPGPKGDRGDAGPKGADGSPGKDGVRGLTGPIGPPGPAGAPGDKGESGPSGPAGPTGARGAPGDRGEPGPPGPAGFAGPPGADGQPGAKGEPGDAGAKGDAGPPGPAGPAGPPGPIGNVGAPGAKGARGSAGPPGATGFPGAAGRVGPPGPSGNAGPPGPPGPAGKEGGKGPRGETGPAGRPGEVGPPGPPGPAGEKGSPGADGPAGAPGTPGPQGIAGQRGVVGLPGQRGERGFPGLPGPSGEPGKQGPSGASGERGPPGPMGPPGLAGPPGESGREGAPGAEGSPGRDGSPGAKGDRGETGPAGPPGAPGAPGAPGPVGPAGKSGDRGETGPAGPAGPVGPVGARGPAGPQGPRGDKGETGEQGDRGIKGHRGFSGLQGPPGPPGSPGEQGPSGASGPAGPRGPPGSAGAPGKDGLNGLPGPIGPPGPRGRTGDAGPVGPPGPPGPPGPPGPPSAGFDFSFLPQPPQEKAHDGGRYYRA
Sequence of human collagen (Sigma cat. no. C5483) (human) (P08123 80-1119, chain 2 of 2, further chain): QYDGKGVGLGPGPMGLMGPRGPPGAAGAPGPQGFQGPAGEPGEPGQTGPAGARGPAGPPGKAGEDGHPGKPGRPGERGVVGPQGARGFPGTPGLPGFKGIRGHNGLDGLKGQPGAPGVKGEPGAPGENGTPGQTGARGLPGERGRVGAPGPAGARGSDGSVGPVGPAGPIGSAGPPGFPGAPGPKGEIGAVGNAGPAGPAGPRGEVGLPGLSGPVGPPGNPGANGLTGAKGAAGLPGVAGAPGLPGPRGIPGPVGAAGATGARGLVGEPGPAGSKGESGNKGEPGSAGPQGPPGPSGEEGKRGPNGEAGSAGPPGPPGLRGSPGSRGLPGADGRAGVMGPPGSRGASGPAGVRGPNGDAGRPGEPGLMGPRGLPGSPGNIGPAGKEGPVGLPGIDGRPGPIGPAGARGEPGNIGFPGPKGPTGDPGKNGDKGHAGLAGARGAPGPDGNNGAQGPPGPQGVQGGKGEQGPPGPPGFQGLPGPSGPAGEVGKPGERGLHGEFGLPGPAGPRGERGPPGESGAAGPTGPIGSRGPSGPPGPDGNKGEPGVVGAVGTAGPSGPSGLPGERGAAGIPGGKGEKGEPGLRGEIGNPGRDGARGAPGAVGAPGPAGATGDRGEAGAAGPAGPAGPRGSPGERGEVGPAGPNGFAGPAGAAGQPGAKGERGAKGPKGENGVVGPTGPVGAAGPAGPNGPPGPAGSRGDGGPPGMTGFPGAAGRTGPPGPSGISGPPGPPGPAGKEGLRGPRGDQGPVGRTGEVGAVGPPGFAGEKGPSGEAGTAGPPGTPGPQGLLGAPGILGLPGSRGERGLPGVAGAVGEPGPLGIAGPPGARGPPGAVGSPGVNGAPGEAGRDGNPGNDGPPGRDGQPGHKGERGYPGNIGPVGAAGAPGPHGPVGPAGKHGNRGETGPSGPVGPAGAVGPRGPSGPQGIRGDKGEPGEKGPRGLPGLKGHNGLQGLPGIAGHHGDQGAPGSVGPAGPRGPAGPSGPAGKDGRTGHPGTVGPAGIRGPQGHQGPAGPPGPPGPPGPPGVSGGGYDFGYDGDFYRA

“GAIM scaffold variant with the Q128H mutation (Fc fusion)” came in with a fold increase in non-specific binding to collagen of 1.4 fold.
